What was measured:
[1] = biological target: RNA polymerase II (RNAPII) (Sus scrofa); experiment: EMSA; 0.1 uM RNAPII; RNAPII-only EC; EMSA: 20 mM Hepes-NaOH pH 7.5, 5 mM MgCl2, 5% glycerol (buffer J); final 75 mM NaCl, 50 mM KOAc, 0.33 uM Zn(OAc)2, 4 uM ZnCl2; 30 min at 4 C; native 3-8% Tris-acetate PAGE; details: protein: native; tags: none; copies: 1;1;1;1;1;1;1;1;1;1;1;1; label: Alexa Fluor 647 on primer RNA; template DNA, nontemplate DNA and primer RNA
[2] = biological target: RNA polymerase II (RNAPII);DSIF (SPT4/SPT5);NELF wild type (NELF-A/B/C/E) (Sus scrofa;human;human, UniProt A0A8D1DPV6;A0A4X1TVZ5;P19387;O15514;A0A4X1VTX4;P61218;P62487;P52434;P36954;P6287 …, ||); experiment: EMSA; 0.1 uM RNAPII, 0.4 uM DSIF, 0.4 uM NELF; complete shift; EMSA: 20 mM Hepes-NaOH pH 7.5, 5 mM MgCl2, 5% glycerol (buffer J); final 75 mM NaCl, 50 mM KOAc, 0.33 uM Zn(OAc)2, 4 uM ZnCl2; 30 min at 4 C; native 3-8% Tris-acetate PAGE; details: protein: native;recombinant;recombinant; tags: none;N-His SPT4 (His tag TEV-cleaved); C-Strep SPT5;NELF-C C-His6; NELF-E N-FLAG; copies: 1;1;1;1;1;1;1;1;1;1;1;1;1;1;1;1;1;1; label: Alexa Fluor 647 on primer RNA; template DNA, nontemplate DNA and primer RNA
[3] = biological target: RNA polymerase II (RNAPII);DSIF (SPT4/SPT5) (Sus scrofa;human, UniProt A0A8D1DPV6;A0A4X1TVZ5;P19387;O15514;A0A4X1VTX4;P61218;P62487;P52434;P36954;P6287 …, |); experiment: EMSA; 0.1 uM RNAPII, 0.4 uM DSIF; lower mobility than RNAPII-only EC; EMSA: 20 mM Hepes-NaOH pH 7.5, 5 mM MgCl2, 5% glycerol (buffer J); final 75 mM NaCl, 50 mM KOAc, 0.33 uM Zn(OAc)2, 4 uM ZnCl2; 30 min at 4 C; native 3-8% Tris-acetate PAGE; details: protein: native;recombinant; tags: none;N-His SPT4 (His tag TEV-cleaved); C-Strep SPT5; copies: 1;1;1;1;1;1;1;1;1;1;1;1;1;1; label: Alexa Fluor 647 on primer RNA; template DNA, nontemplate DNA and primer RNA
[4] = biological target: RNA polymerase II (RNAPII);DSIF (SPT4/SPT5);NELF 3E mutant (Sus scrofa;human;human, UniProt A0A8D1DPV6;A0A4X1TVZ5;P19387;O15514;A0A4X1VTX4;P61218;P62487;P52434;P36954;P6287 …, ||K23E;K27E;K34E); experiment: EMSA; 0.1 uM RNAPII, 0.4 uM DSIF, 0.4 uM NELF 3E; complex forms similar to wild type; EMSA: 20 mM Hepes-NaOH pH 7.5, 5 mM MgCl2, 5% glycerol (buffer J); final 75 mM NaCl, 50 mM KOAc, 0.33 uM Zn(OAc)2, 4 uM ZnCl2; 30 min at 4 C; native 3-8% Tris-acetate PAGE; details: protein: native;recombinant;recombinant; tags: none;N-His SPT4 (His tag TEV-cleaved); C-Strep SPT5;NELF-C C-His6; NELF-E N-FLAG; copies: 1;1;1;1;1;1;1;1;1;1;1;1;1;1;1;1;1;1; label: Alexa Fluor 647 on primer RNA; template DNA, nontemplate DNA and primer RNA

Measured: binding result

B1: DNA/RNA scaffold (EMSA) (mixed)
RNA: UUUUUAUCGAGAGGUAC
DNA 1: CCAAGATGTCAACTCTACCGATAAGCAGACGTACCTCTCGAT
DNA 2: CTGCTTATCGGTAGAGTTGACATCTTGG
binds: all assays above

— article PMC11881899, “Structural insights into promoter-proximal pausing of RNA polymerase II at +1 nucleosome”
